From patent US9657092B2, “S100A4 antibodies and therapeutic uses thereof” (LYKERA BIOMED SA, priority 2010, dated 2017)

Tests used:
[1] = biological target: T1, Human S100A6 (Homo sapiens, UniProt P06703); assay: ELISA specificity (reaction pattern of mAb); type: binding; parameters: key: ++++ positive reaction; − no reaction
T1 construct: purchased Abnova

[2] = biological target: T2, Human S100A7 (Homo sapiens, UniProt P31151); assay: ELISA specificity (reaction pattern of mAb); type: binding; parameters: key: ++++ positive reaction; − no reaction
T2 construct: made in house
T2 sequence (P31151 1-101): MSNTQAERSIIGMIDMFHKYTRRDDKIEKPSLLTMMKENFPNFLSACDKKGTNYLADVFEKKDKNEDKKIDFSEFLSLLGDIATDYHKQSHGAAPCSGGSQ

[3] = test system: MMP9 proteolytic activity induced by S100A4; assay: Gelatin zymography of HUVECs conditioned media; type: cell-based, human; conditions: 1-2 μM antibody with S100A4 1 μM, 24 h
Experimental: HUVECs were grown in EBM plus supplements (EGM) and 10% FCS, in 24-well culture plates. Before stimulation, cells were maintained 4 hours in EBM in the absence of serum or other supplements. Then, S100A4 (0.3-1-3 μM), in EBM were added to the culture to analyze their capacity to increase the secretion of active forms of matrix metalloproteinases (MMPs). […] After 24 hours at 37° C., supernatants were centrifuged to remove the debris. Then, 10 μL of Laemmli sample buffer without reducing agent (80 mM Tris-HCl pH 6.8, 4% SDS, 10% glycerol, 0.01% bromophenol blue) was added to 10 μl of each of the clear supernatants that were loaded without boiling in a 8% SDS-polyacrylamide gel copolymerized with Type A gelatine from porcine skin (Sigma) at a final concentration of 1 mg/mL. After electrophoresis, SDS was removed by washing the gel three times for 15 minutes with 2.5% Triton X-100 in H2O. […] Staining was performed for 1 hour at RT with 0.1% naphthol amido black (Sigma) in acetic acid, methanol and water at a proportion of 1:3:6 in volume. Then, gels were washed with destaining solution until clear bands were observed over a dark background. Bands were quantified using the NIH ImageJ imaging software.

[4] = test system: HUVECs migration induced by VEGF plus S100A4; assay: HUVECs Transwell migration assay; type: cell-based, human
Experimental: Twenty-four-well cell culture plates with light-opaque PET membrane filter inserts with 8 μm-pores (Transwell HTS FluoroBlok™ Multiwell Insert Systems from Becton Dickinson) were used to test the migratory activity. The upper and lower surfaces of the Transwell membranes were coated for 2 hours at 37° C. with 15 μg/mL of Type I Collagen (Upstate). Endothelial cells (5×10^4 HUVEC's) suspended in 100 μl of EBM in the absence of serum or other supplements were seeded, after the collagen coating, onto the upper side of each Transwell chamber and incubated for 4 hours at 37° C. Then, S100A4 (1 μM), alone or in combination with VEGF (3 ng/mL) in EBM were added to the lower compartment of the 24-well plates to test their chemotactic capacity. […] Other monoclonal antibody anti-S100A4 called 5H4 (Leitat Biomed Division) was used to compare the activity. After 24 hours at 37° C., cells that had migrated to the lower side of the transwell were incubated with 5 μM Calcein-AM (Calbiochem) for 25-30 minutes at 37° C. Migrated cells were counted under a light microscope at a magnification of ×10. Comparisons between groups were made using the two-tailed nonparametric Mann Whitney U test. Differences for which P value was less than 0.05 were considered statistically significant.

[5] = biological target: Human S100A4 (Homo sapiens, UniProt P26447); assay: Western-blot of cell and tumor extracts; type: binding; parameters: Levels of S100A4 expression in total extracts from tumor cell lines of different origins; endogenous in cells; host or cells: human tumour cell lines (MiaPACA-2, Panc1, BxPC3, Colo 205, MDA-MB-231 and others) and xenograft tumours from HCT116, MiaPACA-2, BxPC3; conditions: denaturalized protein, reduced conditions
Experimental: Cell and tumors samples were rinsed twice with PBS and immediately lysed with ice cold Cell Lysis Buffer (150 mM NaCl, 1% IGEPAL CA630, 5 mM EDTA, 100 μg/mL PMSF, 1 mM Na3VO4, 1 mM NaF and 50 mM Tris pH 7.4). Lysates were cleared by centrifugation and the protein concentration was quantified with the Bradford reagent (Bio-Rad). Total extracts (50 μg) were resolved in a 12% SDS-polyacrilamide gel (PAGE) electrophoresis under reduced conditions and transferred to BioTrace™ PVDF membranes (PALL corporation). Membranes were blocked for 1 hour in TBS plus 0.1% Tween-20 with 5% skimmed dried milk, incubated overnight with the relevant primary antibody and then with the secondary antibodies for 1 hour in blocking buffer, washing three times for 10 min in TBS plus 0.1% Tween-20 after each incubation. Signals were developed using the ECL™ Western Blotting Detection Reagents (Amersham) and exposed to Hyperfilm™ ECL (Amersham).

[6] = VEGF 3 ng/mL plus S100A4 1 μM, 24 h

Chain of Human S100A4 (P26447 whole entry): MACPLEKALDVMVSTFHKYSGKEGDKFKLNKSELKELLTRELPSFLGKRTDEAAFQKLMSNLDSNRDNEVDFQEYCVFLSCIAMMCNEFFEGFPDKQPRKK

B1: 5C3: mouse monoclonal anti-S100A4 antibody, IgG1, from hybridoma ECACC 10022401; VL SEQ ID NO: 1, VH SEQ ID NO: 2 (antibody, V domains shown)
VH: EAQLQQSGAELVKPGASVKLSCTASGFNIQETYMHWVKQRPEQGLEWIGRIDPANGNTKDDPKFQGKASITVDTSSNTAYLQLSSLTSEDTAVYYCASSYAMDYWGQGTSVTVSS
VL: DVLMTQTPLSLPVSLGDQASISCRSSQSIVHSNGNTYLEWYLQKTGQSPELLIYKVSNRLSGVPDRFSGSGSGTDFTLKISRVEAEDLGVYYCFQGSHVPFTFGSGTKLEIK
modifications: VH region of the 5C3 monoclonal antibody; VL region of the 5C3 monoclonal antibody
- Reaction Pattern of mAb in ELISA, Human S100A6 [1]: −
- Reaction Pattern of mAb in ELISA, Human S100A7 [2]: −
- activity of MMP9 in the media [3]: completely reduced
- concentration that abolished the synergistic effect of VEGF plus S100A4 on HUVECs migration [4, 6]: 250 nM
- neutralizing activity on HUVECs migration induced by S100A4 [4, 6]: in vitro neutralizing activity
- migration induced by VEGF alone ([4]; VEGF alone): did not affect
- reaction with human S100A4 in Western-blot [5]: react with human S100A4
